Experimental data reported in paper PMC4613500 (2015).

Legend:
[1] = target: the molecule itself; experiment: sedimentation velocity analytical ultracentrifugation
SPR = target: the molecule itself; experiment: SPR

Row | Protein | Kd [1] [nM] | Kd (SPR) [nM]
1 | Chordin (protein) AGPEPPVLPIRSEKEPLPVRGAAGCTFGGKVYALDETWHPDLGEPFGVMRCVLCACEAPQWGRRTRGPGRVSCKNIKPECPTPACGQPRQLPGHCCQTCPQERSSSERQPSGLSFEYPRDPEHRSYSDRGEPGAEERARGDGHTDFVALLTGPRSQAVARARVSLLRSSLRFSISYRRLDRPTRIRFSDSNGSVLFEHPAAPTQDGLVCGVWRAVPRLSLRLLRAEQLHVALVTLTHPSGEVWGPLIRHRALAAETFSAILTLEGPPQQGVGGITLLTLSDTEDSLHFLLLFRGLLEPRSGGLTQVPLRLQILHQGQLLRELQANVSAQEPGFAEVLPNLTVQEMDWLVLGELQMALEWAGRPGLRISGHIAARKSCDVLQSVLCGADALIPVQTGAAGSASLTLLGNGSLIYQVQVVGTSSEVVAMTLETKPQRRDQRTVLCHMAGLQPGGHTAVGICPGLGARGAHMLLQNELFLNVGTKDFPDGELRGHVAALPYCGHSARHDTLPVPLAGALVLPPVKSQAAGHAWLSLDTHCHLHYEVLLAGLGGSEQGTVTAHLLGPPGTPGPRRLLKGFYGSEAQGVVKDLEPELLRHLAKGMASLMITTKGSPRGELRGQVHIANQCEVGGLRLEAAGAEGVRALGAPDTASAAPPVVPGLPALAPAKPGGPGRPRDPNTCFFEGQQRPHGARWAPNYDPLCSLCTCQRRTVICDPVVCPPPSCPHPVQAPDQCCPVCPEKQDVRDLPGLPRSRDPGEGCYFDGDRSWRAAGTRWHPVVPPFGLIKCAVCTCKGGTGEVHCEKVQCPRLACAQPVRVNPTDCCKQCPVGSGAHPQLGDPMQADGPRGCRFAGQWFPESQSWHPSVPPFGEMSCITCRCGAGVPHCERDDCSLPLSCGSGKESRCCSRCTAHRRPAPETRTDPELEKEAEGS | 3300 | 3.05
2 | Chordin ∆C ∆C (C-terminally tolloid-cleaved fragment, lacking vWC4) (protein) AGPEPPVLPIRSEKEPLPVRGAAGCTFGGKVYALDETWHPDLGEPFGVMRCVLCACEAPQWGRRTRGPGRVSCKNIKPECPTPACGQPRQLPGHCCQTCPQERSSSERQPSGLSFEYPRDPEHRSYSDRGEPGAEERARGDGHTDFVALLTGPRSQAVARARVSLLRSSLRFSISYRRLDRPTRIRFSDSNGSVLFEHPAAPTQDGLVCGVWRAVPRLSLRLLRAEQLHVALVTLTHPSGEVWGPLIRHRALAAETFSAILTLEGPPQQGVGGITLLTLSDTEDSLHFLLLFRGLLEPRSGGLTQVPLRLQILHQGQLLRELQANVSAQEPGFAEVLPNLTVQEMDWLVLGELQMALEWAGRPGLRISGHIAARKSCDVLQSVLCGADALIPVQTGAAGSASLTLLGNGSLIYQVQVVGTSSEVVAMTLETKPQRRDQRTVLCHMAGLQPGGHTAVGICPGLGARGAHMLLQNELFLNVGTKDFPDGELRGHVAALPYCGHSARHDTLPVPLAGALVLPPVKSQAAGHAWLSLDTHCHLHYEVLLAGLGGSEQGTVTAHLLGPPGTPGPRRLLKGFYGSEAQGVVKDLEPELLRHLAKGMASLMITTKGSPRGELRGQVHIANQCEVGGLRLEAAGAEGVRALGAPDTASAAPPVVPGLPALAPAKPGGPGRPRDPNTCFFEGQQRPHGARWAPNYDPLCSLCTCQRRTVICDPVVCPPPSCPHPVQAPDQCCPVCPEKQDVRDLPGLPRSRDPGEGCYFDGDRSWRAAGTRWHPVVPPFGLIKCAVCTCKGGTGEVHCEKVQCPRLACAQPVRVNPTDCCKQCPVGSGA | – | 3.15
